Here are results for 2 molecules from patent US9944718B2, “ADAM22 for use as a prognostic variable, and target for therapy, of a metastatic breast cancer disease” (Royal College of Surgeons in Ireland, priority 2011, dated 2018).

Peptide text beside a SMILES is read from it.

A short description of data set [1]: Toxicity study of LGI1 peptide mimetic in vivo. To be noted: preliminary in vivo studies; FIG. 1F.
Experimental: LGI1 mimetic was delivered by daily intraperitoneal injection to C57/bl6 mice at high (100 ug/kg/day), medium (10 ug/kg/day) and low dose (1 ug/kg/day) for 30 days.
The subject of data set [2] is endocrine resistant LetR cells. The data set is described as follows: Motility assay, LetR cells. In kind it is cell-based. The settings on record: 5 nM, FIG. 1C/1E. The text has this: (§1) • For cell culture use Minimum Essential Medium-Eagle (EMEM; BioWhittaker, Product No. 12-611Q) containing the following supplements (=EMEM Complete Medium): 10% fetal calf serum (BioWhittaker, Product No. 14-503F), 1X penicillin/streptomycin solution (BioWhittaker, Product No. 17-602E), 1% L-glutamine (BioWhittaker, Product No. 17-605E), 1% non-essential amino acids (BioWhittaker, Product No. 13-114E) and 1% sodium pyruvate (BioWhittaker, Product No. 13-115E). • Split cells when they reach 60-80% confluency (every 2-3 days), diluting 1:5 to 1:10. • For cell motility, harvest cells with trypsin-versene mixture (BioWhittaker, Product No. 17-161F) and dilute into EMEM Complete Medium (warmed to 37° C.). For cells cultured in a T-75 flask, wash cells with 3 ml of trypsin. Add another 3 ml of trypsin and aspirate 2 ml. Allow cells to detach by incubating flask at 37° C. for 5 minutes and then add 9 ml of EMEM Complete Medium and centrifuge cells at 400×g for 5 minutes at room temperature. • Wash 3× with Serum-Free Culture Medium (warmed to 37° C.) (see Procedure section). • Adjust cell density to 10^4 cells/ml in EMEM serum-free medium and add 50 μl of the cell suspension to each well of a 96-well microplate (=500 cells/well). Cell motility is stimulated with 50 μl of 10% fetal bovine serum (FBS) diluted in EMEM serum-free medium. […]

The next data set deals with MCF7 cells. The data set is described as follows: Motility assay, MCF7 cells. The settings on record: 5 nM, FIG. 1C. Type of data set: cell-based.
Source text: as §1

Data set [3] has as its system endocrine resistant LY2 cells. The data set can be described thus: Motility assay, LY2 cells. Type of data set: cell-based. To be noted: 5 nM, FIG. 1C/1E.
Source text: as §1

Another data set deals with LetR cells. The data set is described as follows: Cellular differentiation in 3D culture, LetR cells. In kind it is cell-based. The settings on record: LetR cells treated with LGI1; n=3; FIG. 1D.
Data set [4] relates to endocrine resistant LetR cells. The data set is described as follows: Xenograft model of endocrine resistance. In kind it is in vivo. The settings on record: FIG. 1G. The text has this: As ADAM22 expression has previously only been described in the central nervous system, a therapeutic directed against systemic ADAM22 has the potential to be highly specific for the breast and have low toxicity. The neuronal protein, LGI1 serves as a specific extracellular ligand for ADAM22^4. […] The Applicant has shown that treatment with recombinant LGI1 reduced cellular migration and restored differentiation in endocrine resistant cells in a similar manner to that observed with knockdown of ADAM22 (FIGS. 1C and D). A 22 amino acid peptide mimetic of LGI1 with a simple hairpin structure against the active binding domain of ADAM22 has been developed. […] In vivo studies have been undertaken to assess the efficacy of the LGI1 mimetic in reducing breast cancer burden in endocrine resistant breast cancer. […] This has significant advantage over previous methods described of detecting metastatic disease^9.

Where [5] appears, read: LetR cells in vivo, daily injection.

For the molecule `CC[C@H](C)[C@H](NC(=O)[C@H](Cc1ccccc1)NC(=O)[C@H](CCCNC(=N)N)NC(=O)[C@@H](NC(=O)[C@H](CC(C)C)NC(=O)[C@H](CS)NC(=O)[C@@H](NC(=O)[C@H](Cc1ccc(O)cc1)NC(=O)[C@@H](NC(=O)[C@H](CC(=O)O)NC(=O)CNC(=O)[C@@H](N)CCCCN)C(C)C)[C@@H](C)CC)[C@@H](C)O)C(=O)NCC(=O)N[C@@H](CC(=O)O)C(=O)N[C@@H](CO)C(=O)N[C@@H](CCCCN)C(=O)N[C@H](C(=O)N[C@@H](CCSC)C(=O)N[C@@H](CCCCN)C(=O)N[C@@H](Cc1c[nH]c2ccccc12)C(=O)NCC(=O)NCC(=O)O)C(C)C` [LGI1 mimetic] (H-KGDVYICLTRFIGDSKVMKWGG-OH), the tolerability / toxicity entry in data set [1] was “well tolerated with no toxicity observed”.

B1: LGI1: neuronal protein and known ADAM22 ligand LGI1 (SEQ ID NO: 1), GENBANK AAQ89244 (protein, listed as Homo sapiens)
chain: MESERSKRMGNACIPLKRIAYFLCLLSALLLTEGKKPAKPKCPAVCTCTKDNALCENARSIPRTVPPDVISLSFVRSGFTEISEGSFLFTPSLQLLLFTSNSFDVISDDAFIGLPHLEYLFIENNNIKSISRHTFRGLKSLIHLSLANNNLQTLPKDIFKGLDSLTNVDLRGNSFNCDCKLKWLVEWLGHTNATVEDIYCEGPPEYKKRKINSLSSKDFDCIITEFAKSQDLPYQSLSIDTFSYLNDEYVVIAQPFTGKCIFLEWDHVEKTFRNYDNITGTSTVVCKPIVIETQLYVIVAQLFGGSHIYKRDSFANKFIKIQDIEILKIRKPNDIETFKIENNWYFVVADSSKAGFTTIYKWNGNGFYSHQSLHAWYRDTDVEYLEIVRTPQTLRTPHLILSSSSQRPVIYQWNKATQLFTNQTDIPNMEDVYAVKHFSVKGDVYICLTRFIGDSKVMKWGGSSFQDIQRMPSRGSMVFQPLQINNYQYAILGSDYSFTQVYNWDAEKAKFVKFQELNVQAPRSFTHVSINKRNFLFASSFKGNTQIYKHVIVDLSA
modifications: (1)..(557) LGI1 protein
In the case of B1, the cellular migration result in data set [2] is recorded as “significantly reduced cellular migration”; with MCF7 cells, “no discernable effect”; in data set [3], “significantly reduced cellular migration”. Moreover, in the data set with LetR cells, the cellular differentiation entry is on record as “restored cellular differentiation”. Further, the “cell proliferation in vivo” value in data set [4] (setting [5]) was “inhibits”. Besides, in data set [4] (setting [5]), the metastasis in vivo entry is “inhibits”. Also, in data set [4] (xenograft model of endocrine resistance), the tumour burden entry was “significantly reduced tumour burden”.
